Results from IntAct's records for PubMed 17537733.

Biological target: kdm1a_human KDM1A (UniProt O60341)

effect of a mutation on the interaction: decreasing interaction
Substance: Histone H3.1t (Homo sapiens) (from UniProt Q16695) K5M
